B1: D10: a lower affinity antibody that binds the same epitope as Ab1 (antibody, V domains shown)
VH: QVQLKESGPGLVAPSQTLSITCTVSGFSLTSYGVHWVRQPPGKGLEWLGVIWAGGFTNYNSALKSRLSISKDNSKSQVLLKMTSLQTDDTAMYYCARRGSSYSMDYWGQGTSVIVSS
VL: EIVLSQSPAITAASLGQKVTITCSASSNVSYIHWYQQRSGTSPRPWIYEISKLASGVPVRFSGSGSGTSYSLTISSMEAEDAAIYYCQQWNYPLITFGSGTKLEIQ
B2: ADC-S: D10 conjugated via MAL-VC-PAB to MMAE (conjugate)
VH: B1 VH
VL: B1 VL

Columns and labels:
ROR1 on Jeko-1 cells = target: T1, ROR1 on Jeko-1 cells (Homo sapiens, UniProt Q01973); experiment: Binding to ROR1-positive Jeko-1 cells (flow cytometry receptor binding assay); conditions: 20 minutes on ice, PE secondary antibody
T1 construct: The Jeko-1 cell line, from mantle cell lymphoma, is a suspension cell line; host or cells: Jeko-1 (human mantle cell lymphoma)
Procedure: The binding to tumor cells by antibodies Ab1 and 4A5, as well as ADC constructs derived from those antibodies (ADC-A and ADC-T), was evaluated. First, the binding of Ab1 to two ROR1-positive human tumor cell lines representing different cancer types was tested. The Jeko-1 cell line, from mantle cell lymphoma, is a suspension cell line, while the MDA-MB-231 cell line, from triple negative breast cancer, is an adherent cell line. The cell lines have different levels of ROR1 expression, with Jeko-1 cells displaying about 13507 cell surface copies and the MDA-MB-231 cells displaying about 21015 cell surface copies. The Jeko-1 (ATCC Cat. No. CRL-3006) and MDA-MB-231 (ATCC Cat. No. […]) cell lines were purchased from the American Type Culture Collection and were maintained according to the ATCC recommendations.
Jeko-1 cells (FIG. 2A) or MDA-MB-231 cells (FIG. 2B) were incubated with 0, 1, 10, 100, or 1000 ng/mL of Ab1 for 20 minutes on ice. After washing off unbound antibody, the cells were incubated with secondary anti-human IgG antibody labeled with phycoerythrin (PE) for an additional 20 minutes. The amount of PE fluorescence was measured using the BDFACS Verse analyzer and FlowJo V10 software. The PE signal for the highest concentration was used as the maximal binding signal to calculate the % maximal binding. EC50 was calculated using GraphPad Prism 7. […]

Mino = experiment: Cytotoxicity in vitro (CellTiter-Glo viability), Mino; format: cell-based, human; conditions: Mino (MCL), 72 hours
Procedure: Cells were cultured in log phase growth and distributed into 96-well plates. Each cell line was plated at a slightly different cell density, ranging from 5×10^3 to 50×10^4 cells/well. Cells in duplicate were incubated with 3-fold serial dilution of a particular immunoconjugate (10, 3.33, 1.11, 0.37, 0.12, 0.041, 0.014, and 0.0045 μM) for 72 hours at 37° C. and 5% CO2. After treatment, cells were incubated with an equal volume of CellTiter-Glo® reagent (Promega Inc.) for 15 minutes at room temperature and viability was determined by a luminometer. Curves and EC50 values were generated in GraphPad Prism using a sigmoidal dose response non-linear regression fit.
Cells were grown and distributed into 96-well plates as described in Example 5. Cells in duplicate were incubated with 3-fold serial dilution of a particular immunoconjugate (660, 220, 73.3, 24.4, 8.14, 2.71, 0.91, and 0.3 nM) for 72 hours at 37° C. and 5% CO2. In some experiments, cells were incubated with an immunoconjugate for 96 hours instead of 72 hours (values highlighted with “*”). After treatment, cell viability was determined as described in Example 5.

Jeko-1 MCL xenograft = experiment: Jeko-1 human MCL xenograft model (study 7); format: in vivo, mouse; conditions: 1 mg/kg ADC-N, ADC-P, ADC-R; 5 mg/kg ADC-A, ADC-L, ADC-M, ADC-S, ADC-T; IV Q4D
Procedure: Jeko-1 (MCL) cells were engrafted subcutaneously into mice. When tumor size reached 100 mm^3, the mice were randomized into nine groups, 9 mice/group. The groups were vehicle control; 1 mg/kg ADC-N, ADC-P or ADC-R; or 5 mg/kg ADC-A, ADC-L, ADC-M, ADC-S, or ADC-T. The mice were dosed IV q4d.

T1 sequence (Q01973 30-937): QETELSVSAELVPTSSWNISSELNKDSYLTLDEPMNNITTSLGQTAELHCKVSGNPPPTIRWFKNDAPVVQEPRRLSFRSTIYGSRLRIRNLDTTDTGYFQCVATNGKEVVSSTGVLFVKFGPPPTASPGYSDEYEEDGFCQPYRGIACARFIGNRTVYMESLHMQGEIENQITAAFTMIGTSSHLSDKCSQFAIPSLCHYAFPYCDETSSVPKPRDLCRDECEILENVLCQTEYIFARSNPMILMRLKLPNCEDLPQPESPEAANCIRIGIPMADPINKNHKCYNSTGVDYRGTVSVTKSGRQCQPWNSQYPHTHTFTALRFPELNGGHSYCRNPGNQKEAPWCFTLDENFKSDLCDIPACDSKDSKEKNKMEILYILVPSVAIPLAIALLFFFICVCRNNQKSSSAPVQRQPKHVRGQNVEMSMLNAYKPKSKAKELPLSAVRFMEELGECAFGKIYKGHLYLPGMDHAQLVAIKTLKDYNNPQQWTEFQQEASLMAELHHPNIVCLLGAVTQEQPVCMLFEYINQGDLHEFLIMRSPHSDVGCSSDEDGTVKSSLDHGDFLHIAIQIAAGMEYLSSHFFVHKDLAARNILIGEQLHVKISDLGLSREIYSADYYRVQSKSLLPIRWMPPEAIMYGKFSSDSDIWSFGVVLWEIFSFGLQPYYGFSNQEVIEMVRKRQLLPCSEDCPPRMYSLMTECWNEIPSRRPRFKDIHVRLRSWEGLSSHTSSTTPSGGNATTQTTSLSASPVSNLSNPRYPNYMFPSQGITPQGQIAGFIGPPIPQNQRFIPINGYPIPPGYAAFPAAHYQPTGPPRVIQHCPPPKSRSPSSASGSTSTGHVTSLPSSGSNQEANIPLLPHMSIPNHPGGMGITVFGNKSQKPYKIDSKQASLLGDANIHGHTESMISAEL

Molecule	EC50 of binding to cells (ROR1 on Jeko-1 cells) [µg/mL]	EC50 (Mino) [nM]	tumor growth / average tumor size (interim results, day 14) (Jeko-1 MCL xenograft)
B1	0.25	–	–
B2	0.15	83.3	Significant tumor regression
